Results: publication PMC3935622

Biological target: S. Typhimurium CueP C172S mutant (S. Typhimurium)
Assay: SEC

S. Typhimurium CueP C172S mutant (natural protein)
stoichiometry N: 4
